Reference: US20250313627A1 (FUSE BIOTHERAPEUTICS, published 2025)

Experiments:
[1] = target: T1, recombinant His tagged human ROR1 (human, UniProt Q01973 30-403, limits assumed); test: BLI (Octet), FUSE protein loaded on the biosensor, His tagged ROR1 in solution; column 'kdis(1/s)'
T1 construct: Analyte in the BLI assay; also called Human ROR1-His; recombinant ROR1
Procedure: (§1) As shown in FIGS. 5A-5D, the binding affinities (KD) of TCEs for ROR1 were assessed. We examined the magnitude by which several TCEs and mutants thereof bind to recombinant ROR1. Kinetic binding graphs were generated via Bio-Layer Interferometry (BLI) using an Octet system. For each TCE, the biosensor tips were coated with FUSE proteins at 15 μg/ml and probed with either recombinant His tagged ROR1 at concentrations ranging from 100 pM to 10 μM. […] The binding affinity (KD), on rate (k-on) and off rate (k-dis), are summarized for ROR1 in FIG. 5D.
(§2) Antibodies were prepared in 1×PBS with 0.02% Tween-20 with the final concentration of 15 ug/ml. Human ROR1-His or CD3e-His protein were also prepared, and serial diluted (4-fold dilution ranging from 400 nM to 0.098 nM) in 1×PBS with 0.02% Tween-20. The biosensors were pre-moistened in 200 uL of 1×PBS with 0.02% Tween-20 for 10 minutes. Meanwhile, Octet BLI system (ForteBio) was prewarmed for 30 minutes and the flow rate was set to 1000 rpm. The biosensors (Anti-hIgG Fc Capture biosensor) were soaked in 250 uL of 1×PBS with 0.02% Tween-20 for 60 seconds at 30° C. to get an initial baseline reading. After the 60-second baseline reading, the biosensors were exposed to testing antibody for 300 seconds at 30° C. for the association between antibody and the biosensors (coupling antibody with biosensor). The biosensors with antibody were then exposed to human ROR1 or CD3e in 250 uL of 1×PBS with 0.02% Tween-20 at 30° C. for 300 seconds for the association reaction between antibody and human ROR1 or CD3e (association curve). After 300-second association reaction between antibody and antigen, the biosensors with antibody and antigen were then exposed to 250 uL of 1×PBS with 0.02% Tween-20 at 30° C. for 300 seconds for the dissociation reaction between antibody and […]. The binding affinity was calculated by the built-in data fitting algorithm.

[2] = target: T2, human ROR1 (Receptor Tyrosine Kinase-Like Orphan Receptor 1) on the cell surface (human, UniProt Q01973 30-937); test: flow cytometry on MDA-MB-231 ROR1 low cells (about 17,000 ROR1 per cell), secondary antibody to the IgG1 Fc
T2 construct: whole, on cells; engineered into B16-F10 (high density) and LS174T (low density) cells; also called B16-F10-ROR1-H; LS174T-ROR1-L
Procedure: (§3) Binding of 2A11 (black line), 5A1 (dark grey line) and VHH8 (medium grey line) were tested in TCE format 12A. The commercial ROR1 specific Ab reported to bind the ROR1-Ig domain 2A2 (light grey line), served as the positive control and anti-HEL (dotted black line) served as the negative control. To better visualize binding of each test article to the three cells lines, we plotted MFI on the y-axis for each test article for HEK-293 cells (negative control; FIG. 4I), HEK-293 cells transfected with full length human ROR1 (FIG. 4J) and HEK-293 cells transfected with the ROR1 Ig domain linked to the cell surface via the GPI linker from CD59 (FIG. 4K).
(§4) Adherent target cells were collected by brief TrypLE treatment while suspension cells were directly collected. Collected cells were washed once with PBS by centrifugation at 500×g for 5 minutes at room temperature and added to V-bottom 96-well plate (200,000-300,000 cells per well). To prepared Live/Dead fixable red, one vial of powder was dissolved into 50 uL of DMSO to make stock solution and then diluted 1 uL of stock Live/Dead fixable red in 1 mL of PBS to prepare the working solution. 100 uL of Live/Dead fixable red working buffer was then added to the cell in the V-bottom 96-well plate (200,000-300,000 cells per well) and incubated for 15 minutes at room temperature. After the 15-minute incubation, the cells were washed twice with PBS by centrifugation at 500 g for 5 minutes at room temperature. The cells were then cultured with antibodies at different concentrations in 100 uL of Biolegend staining buffer at 4° C. for 45 minutes. After the 45-minute incubation with primary antibody, the cells were washed with PBS by centrifugation at 500 g for 5 minutes at room temperature. The cells were then cultured with PE-Cy7-conjugated mouse-anti-human IgG secondary antibody in Biolegend staining buffer at 4° C. for 45 minutes. […] The samples were then analyzed on Cytek flow cytometer.

[3] = target: T2, human ROR1 (Receptor Tyrosine …); test: flow cytometry on MDA-MB-231 variants, low ROR1 density; low cell surface density of ROR1
Procedure: as §3
(§5) Adherent target cells were collected by brief TrypLE treatment while suspension cells were directly collected. Collected cells were washed once with PBS by centrifugation at 500×g for 5 minutes at room temperature and added to V-bottom 96-well plate (200,000-300,000 cells per well). To prepared Live/Dead fixable red, one vial of powder was dissolved into 50 uL of DMSO to make stock solution and then diluted 1 uL of stock Live/Dead fixable red in 1 mL of PBS to prepare the working solution. 100 uL of Live/Dead fixable red working buffer was then added to the cell in the V-bottom 96-well plate (200,000-300,000 cells per well) and incubated for 15 minutes at room temperature. […] The samples were then analyzed on Cytek flow cytometer.

[4] = target: T3, cynomolgus (NHP) CD3 on cynomolgus pan-T cells (cynomolgus); test: flow cytometry on cynomolgus pan-T cells
T3 construct: whole, on cells; also called cynomolgus CD3
Procedure: (§6) The CD3-specific Fab binding arm is presumed responsible for the observed binding. A Hen Egg Lysozyme (HEL)-specific antibody was used as the negative isotype control. Binding was measured via flow cytometry at various concentrations of test articles using a fluorescently labeled secondary antibody specific for the Fc domain of IgG1. The apparent affinity calculated for each test subject based on the data is shown under each graph. […] Binding to mouse CD3 was not tested because the anti-CD3 clone, 1F3-3, incorporated into the TCE is a humanized variant of clone SP34, which was derived in mouse and is well described as not binding mouse CD3.
as §5

[5] = target: T2, human ROR1 (Receptor Tyrosine …); test: flow cytometry on MDA-MB-231 variants, high ROR1 density; high cell surface density of ROR1
Procedure: as §3, §5

human CD3 on T cells [6] = target: T4, human CD3 on T cells (human, UniProt P07766 23-207; P09693 23-182; P04234 22-171; P20963 22-164); test: flow cytometry on Jurkat T cells, fluorescent secondary antibody to the IgG1 Fc; table row 'Binding EC50 (Kd)'
T4 construct: whole, on cells; also called human CD3 on Jurkat T cells; human CD3 on T cells isolated from human PBMC
Procedure: as §6, §5

[7] = target: T1, recombinant His tagged human ROR1; test: BLI (Octet), FUSE protein loaded on the biosensor, His tagged ROR1 in solution
Procedure: as §1, §2

[8] = target: T3, cynomolgus (NHP) CD3 on cynomolgus …; test: flow cytometry on cynomolgus pan T cells, fluorescent secondary antibody to the IgG1 Fc; table row 'Binding EC50 (Kd)'
Procedure: as §6, §5

[9] = target: T5, mouse ROR1 on mouse 4T1 cells (mouse, UniProt Q9Z139 30-937); test: flow cytometry on 4T1 cells expressing mouse ROR1
T5 construct: whole, on cells

[10] = target: T2, human ROR1 (Receptor Tyrosine …); test: flow cytometry on MDA-MB-231 ROR1 super high cells (about 2,000,000 ROR1 per cell), secondary antibody to the IgG1 Fc
Procedure: as §3, §4

[11] = target: T2, human ROR1 (Receptor Tyrosine …); test: flow cytometry on MDA-MB-231 ROR1 high cells (about 500,000 ROR1 per cell), secondary antibody to the IgG1 Fc
Procedure: as §3, §4

human CD3 on T cells [12] = target: T4, human CD3 on T cells; test: flow cytometry on human pan T cells (T cells isolated from human PBMC), fluorescent secondary antibody to the IgG1 Fc; table row 'Binding EC50 (Kd)'
Procedure: as §6, §5

[13] = target: T2, human ROR1 (Receptor Tyrosine …); test: flow cytometry on MDA-MB-231 ROR1 normal cells (about 35,000 ROR1 per cell), secondary antibody to the IgG1 Fc
Procedure: as §3, §4

T4 sequence (P07766 23-207, chain 1 of 4): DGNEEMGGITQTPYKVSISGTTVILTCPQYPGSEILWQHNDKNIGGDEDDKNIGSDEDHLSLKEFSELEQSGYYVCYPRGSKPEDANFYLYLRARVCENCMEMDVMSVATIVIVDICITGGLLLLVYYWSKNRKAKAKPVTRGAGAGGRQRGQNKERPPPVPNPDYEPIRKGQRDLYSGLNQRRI
T4 sequence (P09693 23-182, chain 2 of 4): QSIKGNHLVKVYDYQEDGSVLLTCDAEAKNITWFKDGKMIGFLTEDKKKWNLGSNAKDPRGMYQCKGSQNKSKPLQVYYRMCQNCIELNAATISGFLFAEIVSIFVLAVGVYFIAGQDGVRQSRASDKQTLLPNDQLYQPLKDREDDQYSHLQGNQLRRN
T4 sequence (P04234 22-171, chain 3 of 4): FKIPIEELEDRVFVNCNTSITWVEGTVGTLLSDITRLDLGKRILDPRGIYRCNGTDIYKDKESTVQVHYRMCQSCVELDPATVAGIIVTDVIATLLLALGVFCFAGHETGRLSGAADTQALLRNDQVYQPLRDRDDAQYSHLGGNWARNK
T4 sequence (P20963 22-164, chain 4 of 4): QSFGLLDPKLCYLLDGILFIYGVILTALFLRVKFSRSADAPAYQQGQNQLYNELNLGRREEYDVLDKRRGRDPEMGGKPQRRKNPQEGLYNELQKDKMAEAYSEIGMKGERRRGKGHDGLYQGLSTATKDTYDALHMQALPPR
T1 sequence (Q01973 30-403 limits assumed): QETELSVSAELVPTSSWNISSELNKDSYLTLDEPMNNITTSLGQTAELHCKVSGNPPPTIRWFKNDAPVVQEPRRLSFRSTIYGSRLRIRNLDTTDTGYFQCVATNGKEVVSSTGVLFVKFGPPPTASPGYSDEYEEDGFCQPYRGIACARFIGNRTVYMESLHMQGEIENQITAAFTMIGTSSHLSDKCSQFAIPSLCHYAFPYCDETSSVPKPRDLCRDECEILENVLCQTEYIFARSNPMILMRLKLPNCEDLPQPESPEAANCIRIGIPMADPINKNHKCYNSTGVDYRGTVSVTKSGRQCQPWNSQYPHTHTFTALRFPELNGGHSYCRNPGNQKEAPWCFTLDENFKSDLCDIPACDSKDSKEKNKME
T2 sequence (Q01973 30-937): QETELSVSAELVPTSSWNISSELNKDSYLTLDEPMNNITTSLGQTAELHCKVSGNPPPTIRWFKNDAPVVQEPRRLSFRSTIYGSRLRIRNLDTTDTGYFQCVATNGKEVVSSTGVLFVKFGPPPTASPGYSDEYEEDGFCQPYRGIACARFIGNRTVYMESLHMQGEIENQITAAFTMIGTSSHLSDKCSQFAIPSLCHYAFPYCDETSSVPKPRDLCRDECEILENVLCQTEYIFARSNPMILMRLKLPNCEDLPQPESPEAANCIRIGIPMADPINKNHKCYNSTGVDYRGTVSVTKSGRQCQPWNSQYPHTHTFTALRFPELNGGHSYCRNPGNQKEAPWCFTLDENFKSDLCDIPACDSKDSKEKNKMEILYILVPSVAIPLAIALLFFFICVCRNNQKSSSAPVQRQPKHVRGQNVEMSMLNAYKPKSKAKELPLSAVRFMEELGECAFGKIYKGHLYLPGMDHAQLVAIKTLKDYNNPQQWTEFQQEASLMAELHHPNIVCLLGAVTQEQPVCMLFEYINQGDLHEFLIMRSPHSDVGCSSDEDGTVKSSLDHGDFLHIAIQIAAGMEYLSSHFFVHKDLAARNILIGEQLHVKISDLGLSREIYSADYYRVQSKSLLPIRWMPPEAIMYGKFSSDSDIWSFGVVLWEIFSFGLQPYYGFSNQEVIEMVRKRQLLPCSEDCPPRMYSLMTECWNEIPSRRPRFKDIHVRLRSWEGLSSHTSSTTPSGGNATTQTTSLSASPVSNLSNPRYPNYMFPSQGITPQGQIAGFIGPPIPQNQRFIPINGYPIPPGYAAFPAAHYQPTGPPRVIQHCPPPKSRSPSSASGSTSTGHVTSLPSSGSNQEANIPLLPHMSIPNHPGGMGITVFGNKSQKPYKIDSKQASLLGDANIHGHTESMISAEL
T5 sequence (Q9Z139 30-937): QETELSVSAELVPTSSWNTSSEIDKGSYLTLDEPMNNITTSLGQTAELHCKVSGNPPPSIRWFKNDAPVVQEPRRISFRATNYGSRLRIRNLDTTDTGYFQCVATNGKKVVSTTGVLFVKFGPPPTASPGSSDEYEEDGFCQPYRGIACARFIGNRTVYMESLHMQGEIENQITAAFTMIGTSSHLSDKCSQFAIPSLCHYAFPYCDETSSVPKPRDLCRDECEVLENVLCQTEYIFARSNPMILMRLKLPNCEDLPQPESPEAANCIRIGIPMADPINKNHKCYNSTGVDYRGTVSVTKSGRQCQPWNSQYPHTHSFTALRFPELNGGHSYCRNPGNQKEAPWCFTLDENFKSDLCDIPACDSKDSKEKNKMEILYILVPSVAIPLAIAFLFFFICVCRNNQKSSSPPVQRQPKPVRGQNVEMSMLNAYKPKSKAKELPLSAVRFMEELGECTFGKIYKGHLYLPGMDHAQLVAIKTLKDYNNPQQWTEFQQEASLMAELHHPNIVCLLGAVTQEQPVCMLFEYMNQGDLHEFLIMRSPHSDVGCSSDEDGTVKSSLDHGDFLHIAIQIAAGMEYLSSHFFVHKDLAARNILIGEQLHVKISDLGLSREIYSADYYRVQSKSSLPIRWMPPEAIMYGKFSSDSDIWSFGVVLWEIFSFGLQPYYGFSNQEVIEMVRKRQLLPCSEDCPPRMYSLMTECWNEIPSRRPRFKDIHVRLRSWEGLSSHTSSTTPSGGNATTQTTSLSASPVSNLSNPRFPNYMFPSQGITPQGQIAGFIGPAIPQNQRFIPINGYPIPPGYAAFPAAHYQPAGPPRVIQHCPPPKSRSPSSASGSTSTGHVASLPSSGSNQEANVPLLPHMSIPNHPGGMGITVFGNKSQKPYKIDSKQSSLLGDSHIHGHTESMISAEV

| Binder | koff [1] [s⁻¹] | EC50 [2] [nM] | EC50 [3] [nM] | fold difference in apparent binding affinity, cynomolgus against human CD3 [4] [fold] | EC50 [5] [nM] | EC50 (human CD3 on T cells [6]) [nM] | Kd [7] [nM] | kon [7] [M⁻¹ s⁻¹] | EC50 [8] [nM] | binding result [9] | EC50 [10] [nM] | EC50 [11] [nM] | EC50 (human CD3 on T cells [12]) [nM] | EC50 [13] [nM] |
| --- | --- | --- | --- | --- | --- | --- | --- | --- | --- | --- | --- | --- | --- | --- |
| FUSE-393 (bispecific antibody, human IgG1, lambda, L234A L235A, Hole chain: 5A1-linker-5A1-Fc; knob chain: anti-CD3 Fab heavy chain-Fc; anti-CD3 light chain; also called format 11A incorporating the 5A1 ROR1-specific VHH) QVQLQESGGGSVQAGGSLKLSCTASGYTNRLKCMGWFRQAPGKEREEIATISTGTGNTYYADSVKGRFTFSQDKVKNTVYLQMNTLKPDDTGMYYCAADVRPDGTTCHYNSGGQGTQVTVSSGGGGSGGGGSGGGGSQVQLQESGGGSVQAGGSLKLSCTASGYTNRLKCMGWFRQAPGKEREEIATISTGTGNTYYADSVKGRFTFSQDKVKNTVYLQMNTLKPDDTGMYYCAADVRPDGTTCHYNSGGQGTQVTVSSEPKSSDKTHTCPPCPAPEAAGGPSVFLFPPKPKDTLMISRTPEVTCVVVDVSHEDPEVKFNWYVDGVEVHNAKTKPREEQYNSTYRVVSVLTVLHQDWLNGKEYKCKVSNKALPAPIEKTISKAKGQPREPQVYTLPPSREEMTKNQVSLSCAVKGFYPSDIAVEWESNGQPENNYKTTPPVLDSDGSFFLVSKLTVDKSRWQQGNVFSCSVMHEALHNRFTQKSLSLSPGK heavy: EVQLVESGGGLVQPGGSLRLSCAASGFTFSTYAMNWVRQAPGKGLEWVARIRSKYNNYATYYADSVKDRFTISRDDSKNTLYLQMNSLRAEDTAVYYCARHGNFGNSYVSWFAYWGQGTMVTVSSASTKGPSVFPLAPSSKSTSGGTAALGCLVKDYFPEPVTVSWNSGALTSGVHTFPAVLQSSGLYSLSSVVTVPSSSLGTQTYICNVNHKPSNTKVDKKVEPKSCDKTHTCPPCPAPEAAGGPSVFLFPPKPKDTLMISRTPEVTCVVVDVSHEDPEVKFNWYVDGVEVHNAKTKPREEQYNSTYRVVSVLTVLHQDWLNGKEYKCKVSNKALPAPIEKTISKAKGQPREPQVYTLPPSREEMTKNQVSLWCLVKGFYPSDIAVEWESNGQPENNYKTTPPVLDSDGSFFLYSKLTVDKSRWQQGNVFSCSVMHEALHNHYTQKSLSLSPGK light: QAVVTQEPSLTVSPGGTVTLTCRSSTGAVTTSNYANWVQQKPGQAPRGLIGGTNKRAPGTPARFSGSLLGGKAALTLSGVQPEDEAEYYCALWYSNLWVFGGGTKLTVLGQPKAAPSVTLFPPSSEELQANKATLVCLISDFYPGAVTVAWKADSSPVKAGVETTTPSKQSNNKYAASSYLSLTPEQWKSHRSYSCQVTHEGSTVEKTVAPTECS | 0.000468 | 288 | ~300 | < 2 | ~15 | 3.34 | 21.8 | 21500 | 3.04 | no binding | 16.3 | 26.5 | 4.45 | 281 |
| FUSE-394 (bispecific antibody, human IgG1, lambda, L234A L235A, Hole chain: 5A1-Fc; knob chain: anti-CD3 Fab heavy chain-Fc; light chain: anti-CD3 light chain-linker-5A1; also called format 13cA incorporating the 5A1 ROR1-specific VHH) QVQLQESGGGSVQAGGSLKLSCTASGYTNRLKCMGWFRQAPGKEREEIATISTGTGNTYYADSVKGRFTFSQDKVKNTVYLQMNTLKPDDTGMYYCAADVRPDGTTCHYNSGGQGTQVTVSSEPKSSDKTHTCPPCPAPEAAGGPSVFLFPPKPKDTLMISRTPEVTCVVVDVSHEDPEVKFNWYVDGVEVHNAKTKPREEQYNSTYRVVSVLTVLHQDWLNGKEYKCKVSNKALPAPIEKTISKAKGQPREPQVYTLPPSREEMTKNQVSLSCAVKGFYPSDIAVEWESNGQPENNYKTTPPVLDSDGSFFLVSKLTVDKSRWQQGNVFSCSVMHEALHNRFTQKSLSLSPGK heavy: EVQLVESGGGLVQPGGSLRLSCAASGFTFSTYAMNWVRQAPGKGLEWVARIRSKYNNYATYYADSVKDRFTISRDDSKNTLYLQMNSLRAEDTAVYYCARHGNFGNSYVSWFAYWGQGTMVTVSSASTKGPSVFPLAPSSKSTSGGTAALGCLVKDYFPEPVTVSWNSGALTSGVHTFPAVLQSSGLYSLSSVVTVPSSSLGTQTYICNVNHKPSNTKVDKKVEPKSCDKTHTCPPCPAPEAAGGPSVFLFPPKPKDTLMISRTPEVTCVVVDVSHEDPEVKFNWYVDGVEVHNAKTKPREEQYNSTYRVVSVLTVLHQDWLNGKEYKCKVSNKALPAPIEKTISKAKGQPREPQVYTLPPSREEMTKNQVSLWCLVKGFYPSDIAVEWESNGQPENNYKTTPPVLDSDGSFFLYSKLTVDKSRWQQGNVFSCSVMHEALHNHYTQKSLSLSPGK light: QAVVTQEPSLTVSPGGTVTLTCRSSTGAVTTSNYANWVQQKPGQAPRGLIGGTNKRAPGTPARFSGSLLGGKAALTLSGVQPEDEAEYYCALWYSNLWVFGGGTKLTVLGQPKAAPSVTLFPPSSEELQANKATLVCLISDFYPGAVTVAWKADSSPVKAGVETTTPSKQSNNKYAASSYLSLTPEQWKSHRSYSCQVTHEGSTVEKTVAPTECSGGGGSGGGGSGGGGSGGGGSQVQLQESGGGSVQAGGSLKLSCTASGYTNRLKCMGWFRQAPGKEREEIATISTGTGNTYYADSVKGRFTFSQDKVKNTVYLQMNTLKPDDTGMYYCAADVRPDGTTCHYNSGGQGTQVTVSS | 0.00163 | 69.7 | ~100 | < 2 | ~5 | 10.6 | 56.9 | 28700 | 7.46 | no binding | 6.1 | 19.5 | 10.5 | 154 |
